In PMC9826837 (The Journal of Biological Chemistry, 2022):

Molecular target: rat cardiac troponin I (cTnI), Ser22/23 bisphosphorylated (rat, UniProt P23693 1-211, phosphoserine at 22 and 23)
Experiment: SEC-MALS

B1: rat cardiac troponin T (cTnT) (natural protein)
chain: not shown
For B1, the “stoichiometry N” value was 1.
